In paper doi:10.1101/2024.11.07.622398 (bioRxiv, 2024):

T1: mouse UBA7 (mouse, UniProt Q9DBK7 1-977)
T1 sequence (looked up): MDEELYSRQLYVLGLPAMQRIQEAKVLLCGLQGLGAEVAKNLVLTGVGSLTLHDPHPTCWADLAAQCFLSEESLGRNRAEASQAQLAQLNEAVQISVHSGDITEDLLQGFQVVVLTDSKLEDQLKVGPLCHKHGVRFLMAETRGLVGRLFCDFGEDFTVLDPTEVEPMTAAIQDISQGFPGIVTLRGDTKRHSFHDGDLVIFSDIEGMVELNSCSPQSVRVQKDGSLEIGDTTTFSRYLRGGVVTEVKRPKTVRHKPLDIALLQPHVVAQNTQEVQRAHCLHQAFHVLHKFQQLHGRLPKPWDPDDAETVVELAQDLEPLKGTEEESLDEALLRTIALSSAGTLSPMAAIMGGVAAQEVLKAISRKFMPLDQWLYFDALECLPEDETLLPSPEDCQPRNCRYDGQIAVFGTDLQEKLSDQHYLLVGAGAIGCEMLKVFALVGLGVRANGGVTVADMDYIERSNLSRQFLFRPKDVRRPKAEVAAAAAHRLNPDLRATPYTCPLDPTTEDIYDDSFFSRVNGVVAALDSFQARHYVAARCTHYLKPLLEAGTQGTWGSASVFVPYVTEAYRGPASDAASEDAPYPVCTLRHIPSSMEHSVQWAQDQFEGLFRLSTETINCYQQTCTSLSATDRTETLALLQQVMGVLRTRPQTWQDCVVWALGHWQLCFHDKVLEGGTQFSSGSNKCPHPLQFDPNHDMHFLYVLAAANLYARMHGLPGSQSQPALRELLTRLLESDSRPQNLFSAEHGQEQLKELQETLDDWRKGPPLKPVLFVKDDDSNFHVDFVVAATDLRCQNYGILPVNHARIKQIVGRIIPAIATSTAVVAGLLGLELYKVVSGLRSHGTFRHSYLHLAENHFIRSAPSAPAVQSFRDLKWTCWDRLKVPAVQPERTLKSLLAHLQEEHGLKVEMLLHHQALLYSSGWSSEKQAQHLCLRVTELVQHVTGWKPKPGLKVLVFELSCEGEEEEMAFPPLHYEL

T2: human UBA7 (human, UniProt P41226 1-1012)
T2 sequence: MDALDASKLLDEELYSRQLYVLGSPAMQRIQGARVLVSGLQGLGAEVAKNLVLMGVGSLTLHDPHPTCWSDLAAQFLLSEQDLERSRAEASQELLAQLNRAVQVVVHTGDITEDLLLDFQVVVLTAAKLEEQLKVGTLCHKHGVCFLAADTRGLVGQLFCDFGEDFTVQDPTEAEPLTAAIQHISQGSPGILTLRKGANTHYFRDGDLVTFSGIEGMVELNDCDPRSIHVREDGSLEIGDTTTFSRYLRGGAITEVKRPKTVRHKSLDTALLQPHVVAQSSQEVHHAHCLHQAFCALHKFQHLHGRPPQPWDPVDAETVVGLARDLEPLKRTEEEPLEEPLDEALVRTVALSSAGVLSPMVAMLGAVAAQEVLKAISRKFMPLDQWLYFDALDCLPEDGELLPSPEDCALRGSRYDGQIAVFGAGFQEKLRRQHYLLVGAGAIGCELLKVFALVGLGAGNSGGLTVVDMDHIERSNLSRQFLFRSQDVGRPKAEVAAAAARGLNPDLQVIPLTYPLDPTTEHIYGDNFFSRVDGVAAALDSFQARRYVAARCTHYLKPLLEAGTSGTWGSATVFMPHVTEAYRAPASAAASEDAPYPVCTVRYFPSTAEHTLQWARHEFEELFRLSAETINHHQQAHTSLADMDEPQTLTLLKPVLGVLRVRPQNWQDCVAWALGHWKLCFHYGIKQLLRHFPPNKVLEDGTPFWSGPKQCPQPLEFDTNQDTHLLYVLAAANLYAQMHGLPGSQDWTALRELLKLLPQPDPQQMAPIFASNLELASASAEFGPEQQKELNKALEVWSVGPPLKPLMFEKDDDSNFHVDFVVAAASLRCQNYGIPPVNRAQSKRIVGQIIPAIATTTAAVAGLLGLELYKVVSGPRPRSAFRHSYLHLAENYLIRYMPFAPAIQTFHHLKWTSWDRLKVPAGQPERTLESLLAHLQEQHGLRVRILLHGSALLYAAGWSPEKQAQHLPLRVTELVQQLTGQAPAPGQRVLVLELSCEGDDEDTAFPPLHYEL


How the values were obtained:
mouse UBA7 = biological target: T1, mouse UBA7; assay: disulfide complex formation on non-reducing SDS-PAGE
human UBA7 = biological target: T2, human UBA7; assay: as above

| binding result (mouse UBA7) | binding result (human UBA7) | Binder |
| --- | --- | --- |
| binds | – | mouse UBE2L6 (enzyme, UniProt Q9QZU9 1-153, looked up) MMASKRVAKELESLSKELPPYLRQLSSDDANVLVWHMLLLPDQLPYGLKAFQVRIDFPREYPFKPPTLRFTTKIYHPNVREDGLVCLPLISNENWKPYTKPYQVLEALNVLVSKPNLEEPVRLELADLLTQNPEMFRKKAEEFTLKFGVDRPS |
| – | binds | human UBE2L6 (enzyme) not shown |
